# Measured values taken from publication PMC5472179 (Nature Communications, 2017).
# Ends that are not written are not given here. * marks the point of attachment. FITC = O=C1OC2(c3ccc(O)cc3Oc3cc(O)ccc32)c2ccc(NC(=S)*)cc21
# T1: eVP30 110-272 (Ebola virus (Zaire), UniProt Q05323 110-272)
# T1 sequence: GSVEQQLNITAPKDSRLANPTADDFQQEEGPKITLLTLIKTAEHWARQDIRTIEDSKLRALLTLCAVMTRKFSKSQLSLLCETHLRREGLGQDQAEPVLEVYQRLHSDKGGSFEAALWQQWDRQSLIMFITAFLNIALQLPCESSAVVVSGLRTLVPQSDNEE
# Biological target: T1, eVP30 110-272
# Assay: fluorescence polarisation
# Details: both partners purified
row,Binder,binding result
1,RTPTVAPPAPVYRDHS [unlabeled eNP600-615 peptide],binds
2,{FITC}-RTPTVAPPAPVYRDHS [FITC-labeled eNP600-615 peptide],binds
